Results on two molecules are retold here after patent US20220064263A1 (published 2022).

Residue numbers refer to the chain shown, from its start.

The target in one assay is T1, human C1q (human, UniProt P02745 23-245; P02746 28-253; P02747 29-245).
T1 construct: Bought protein complex; the three subunit chains come from general knowledge; also called C1q complex
Nature of the assay: biosensor; fusion captured on IL4-bound tips, human C1q at 250 µg/mL. The procedure:
(§1) A biosensor binding analysis was performed to determine the binding affinity of C1q to IL13R(ECD)-IL4R(ECD)-wild type canine IgG-B Fc (SEQ ID NO: 271) compared to IL13R(ECD)-IL4R(ECD)-variant canine IgG-B Fc (SEQ ID NO: 202). Briefly canine IL4 was biotinylated and captured to streptavidin sensor tips. Either IL13R(ECD)-IL4R(ECD)-wild type canine IgG-B Fc (25 μg/mL) or IL13R(ECD)-IL4R(ECD)-variant canine IgG-B Fc (25 μg/mL) was complexed to the IL4-bound biosensors. Subsequently, the complex was used to bind human C1q at 250 μg/mL (Catalog No. 204876-1MG; Sigma Aldrich). The ability of human C1q to bind either complex was measured. Reduced binding between human C1q and IL13R(ECD)-IL4R(ECD)-variant canine IgG-B Fc was observed when compared to IL13R(ECD)-IL4R(ECD)-wild type canine IgG-B Fc.

For another assay, the target named is T2, canine IL4 (canine, UniProt O77762 25-132, biotinylated (site not stated)).
T2 construct: Biotinylated and captured on streptavidin sensor tips
T2 sequence (looked up): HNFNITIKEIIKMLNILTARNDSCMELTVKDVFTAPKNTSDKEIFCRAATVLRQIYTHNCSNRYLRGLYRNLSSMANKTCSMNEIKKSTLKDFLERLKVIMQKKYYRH
Kind of assay: biosensor; biotinylated canine IL4 on streptavidin tips, fusion at 25 µg/mL. The procedure:
as §1

T1 sequence (P02745 23-245 limits assumed, chain 1 of 3): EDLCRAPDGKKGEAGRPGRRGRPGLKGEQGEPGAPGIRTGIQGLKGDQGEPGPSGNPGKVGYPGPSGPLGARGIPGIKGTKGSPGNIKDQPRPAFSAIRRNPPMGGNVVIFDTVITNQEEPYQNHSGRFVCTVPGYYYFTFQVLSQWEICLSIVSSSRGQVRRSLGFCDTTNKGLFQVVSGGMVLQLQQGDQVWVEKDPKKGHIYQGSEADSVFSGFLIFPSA
T1 sequence (P02746 28-253 limits assumed, chain 2 of 3): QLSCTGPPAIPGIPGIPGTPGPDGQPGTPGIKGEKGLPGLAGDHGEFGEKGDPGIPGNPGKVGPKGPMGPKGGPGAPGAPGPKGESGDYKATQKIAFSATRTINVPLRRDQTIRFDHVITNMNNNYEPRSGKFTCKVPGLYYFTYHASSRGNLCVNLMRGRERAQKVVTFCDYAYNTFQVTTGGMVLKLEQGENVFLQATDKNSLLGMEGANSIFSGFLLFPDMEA
T1 sequence (P02747 29-245 limits assumed, chain 3 of 3): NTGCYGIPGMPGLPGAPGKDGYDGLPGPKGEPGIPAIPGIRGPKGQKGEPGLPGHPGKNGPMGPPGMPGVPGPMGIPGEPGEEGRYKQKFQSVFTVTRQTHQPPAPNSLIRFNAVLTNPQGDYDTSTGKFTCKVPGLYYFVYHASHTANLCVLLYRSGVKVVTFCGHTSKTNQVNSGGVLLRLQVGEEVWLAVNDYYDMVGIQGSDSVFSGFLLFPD

B1: IL13R(ECD)-IL4R(ECD)-wild type canine IgG-B Fc (Fc fusion)
chain: TETQPPVTNLSVSVENLCTVIWTWDPPEGASPNCTLRYFSHFDNKQDKKIAPETHRSKEVPLNERICLQVGSQCSTNESDNPSILVEKCTPPPEGDPESAVTELQCVWHNLSYMKCTWLPGRNTSPDTNYTLYYWHSSLGKILQCEDIYREGQHIGCSFALTNLKDSSFEQHSVQIVVKDNAGKIRPSFNIVPLTSHVKPDPPHIKRLFFQNGNLYVQWKNPQNFYSRCLSYQVEVNNSQTETNDIFYVEEAKCQNSEFEGNLEGTICFMVPGVLPDTLNTVRIRVRTNKLCYEDDKLWSNWSQAMSIGENTDPTGGGSGSGSVKVLHEPSCFSDYISTSVCQWKMDHPTNCSAELRLSYQLDFMGSENHTCVPENREDSVCVCSMPIDDAVEADVYQLDLWAGQQLLWSGSFQPSKHVKPRTPGNLTVHPNISHTWLLMWTNPYPTENHLHSELTYMVNVSNDNDPEDFKVYNVTYMGPTLRLAASTLKSGASYSARVRAWAQTYNSTWSDWSPSTTWLNYYEPKRENGRVPRPPDCPKCPAPEMLGGPSVFIFPPKPKDTLLIARTPEVTCVVVDLDPEDPEVQISWFVDGKQMQTAKTQPREEQFNGTYRVVSVLPIGHQDWLKGKQFTCKVNNKALPSPIERTISKARGQAHQPSVYVLPPSREELSKNTVSLTCLIKDFFPPDIDVEWQSNGQQEPESKYRTTPPQLDEDGSYFLYSKLSVDKSRWQRGDTFICAVMHEALHNHYTQESLSHSPGK
notes: also called fusion protein comprising wild-type canine IgG-B Fc
As to B1, the binding result with human C1q and in the assay with canine IL4 was “binds” throughout.

B2: IL13R(ECD)-IL4R(ECD)-variant canine IgG-B Fc (Fc fusion)
chain: B1 chain with K634R
notes: also called fusion protein comprising variant canine IgG-B Fc K(93)R
B2: the binding result in the assay with human C1q and in the assay with canine IL4 was “binds” throughout.
